± gives the uncertainty stated by the source.
Assay: amyloid nucleation score (Sup35N fusion, yeast selection) (log enrichment); library NNK2; higher = more nucleation; inactive = no reads after selection
How it was run: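 Using DiMSum, nucleation scores were taken as the log enrichment of output over input reads, centred on the mode score of non-aggregating sequences. The input and output reads came from Illumina sequencing of plasmid inserts, with sequences under 100 input reads excluded. The yeast were psi-negative, expressed Sup35N fused to peptides of 20 random codons, were induced with 100 μM copper sulfate for 24 hours, and were grown 7 days at 30°C on medium lacking adenine and uracil.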

Row | Substance | amyloid nucleation score
1 | DHVLSFDSIVVWYLRIGGEE | -0.656 ± 1.1
2 | ERDSSALRMAYSICHGNSVV | 0.232 ± 0.56
3 | NLLLVFSILNSGRMTLNDNK | 5.48 ± 0.094
4 | PTMHVRVSG | 0.495 ± 0.28
5 | SLNAL | -0.296 ± 0.49
6 | MCMLTLRLNQLYMAIMHG | 0.603 ± 0.36
7 | WNLCGCAFDQLYKGVRSVNG | 3.84 ± 0.066
8 | RSHPKMMSDICSV | 0.178 ± 0.65
9 | LWLADDSATRV | 0.814 ± 0.19
10 | LPSVDQTATS | -0.481 ± 0.35
11 | ESRIYYVKQYSCLSTLTMVR | -0.283 ± 0.35
12 | DFNSCRLTVHLRYTSVPCRY | 0.233 ± 0.74
13 | FSWSYDVDIT | inactive
14 | RDFYRWNMQ | 3.8 ± 0.069
15 | LRSCKALGGGVTRPTGYS | 0.709 ± 0.47
16 | PLSPFTHGLSQYIALEIDGQ | -0.254 ± 0.63
17 | DIWMAINVGAYGVCEFCVSR | 5.88 ± 0.071
18 | VIYLVLGKTRLNIELSVLST | 1.16 ± 0.45
19 | THLHQD | -1.55 ± 0.76
20 | GPSDLIFLPGLMAPRS | -0.373 ± 1.1
21 | GSVTTCSAWYKRRNLDICHR | -0.277 ± 0.22
22 | MVVSFGRLGGNLRRNLKVRI | 0.214 ± 0.65
23 | VRLRTHMFY | -0.831 ± 0.76
24 | LDVKERTCL | 0.261 ± 0.54
25 | IDLAHGWSSSH | 0.66 ± 0.57

Row | Substance | amyloid nucleation score
26 | LNSQSVFKC | -0.967 ± 0.55
27 | LKISVCQLRLFKLGARTRGW | 0.158 ± 0.8
28 | YAFKRECWCHYHHHCVQMFW | 0.49 ± 0.33
29 | SHQWLRRLPWVI | 0.528 ± 0.44
30 | LLVVIPYGSYWDV | -0.501 ± 0.78
31 | GGNIGVSYLRWCARINCWWK | 5.49 ± 0.062
32 | GNGWAMSVTKR | 0.571 ± 0.64
33 | CTCKRLVLRVVVEWA | 1.82 ± 0.12
34 | SFLMCGHWIACALTMMVMFQ | 0.896 ± 0.58
35 | YVSHLMFKVSGLPWLGRCNY | 4.78 ± 0.087
36 | LSHLISVVRRVRKYSYGEVV | 0.389 ± 0.64
37 | SMLLVAFWWKGGWTRISPCQ | 0.762 ± 0.23
38 | AYEGFISYLIYLSIRNSSPC | inactive
39 | AKWRDRSETYYLYFRISVRI | -0.493 ± 1.1
40 | TVHDYFDVQECVIDQCKGLP | 0.654 ± 0.57
41 | HCGTHVYYGAIWV | -0.483 ± 0.27
42 | WSYGSNLPWLDKPNWHHETW | 1.2 ± 0.47
43 | FMLYMRLCKFYYFFGS | -1.29 ± 0.41
44 | LNLLADNTLYGDSSYVGYLR | 0.021 ± 0.4
45 | RHADF | 1.39 ± 0.27
46 | WSYGLLWPSVKLIPACPPAS | 0.244 ± 0.42
47 | NGTVDACLSLMPQGWHSGLE | 3.76 ± 0.12
48 | RNIGAR | 0.635 ± 0.16
49 | QYGVLSSETLGCTVFKWYVS | 0.468 ± 0.6
50 | VSCCNLVVDLKRTILLFGGR | 7.504 ± 0.052

Row | Substance | amyloid nucleation score
51 | QERSILGLHWYICRVAKLSF | 0.196 ± 0.64
52 | EWHVWVCIWGCGIEAWMLSW | 1.84 ± 0.16
53 | GDQIWNYGSLAETVTASTWS | 0.509 ± 0.21
54 | TSSQTHSR | -0.03 ± 0.63
55 | FSHYLSRRGRPYHANCKEAL | -0.922 ± 0.39
56 | NALHEIQLDICMRSIEARGY | -1.19 ± 0.39
57 | GKDCSRVNKHWCQRGRQGMV | 0.922 ± 0.58
58 | IRTDSTNMCF | -0.647 ± 1.1
59 | LFIGSIILHYGEKEVKMLAT | 0.571 ± 0.49
60 | LLFMKTFVVRP | 0.494 ± 0.26
61 | VSHRIFGGNMWPGKSHECMC | inactive
62 | FGVLYLDFCSIA | 3.93 ± 0.087
63 | SQRLIRWNCLNAGTIMPSVV | 0.089 ± 1.1
64 | ERRRYLALLQMSMCATGLCY | -0.219 ± 0.43
65 | SFFPS | -0.301 ± 0.45
66 | VFWGILMRGVRRTFSDCAGT | -1.47 ± 0.75
67 | KSCCDGRNYDKIPRVRSSRT | 0.206 ± 0.43
68 | RKTLVGDNLNEGVKSWGWSR | -1.29 ± 0.45
69 | NKTPYIDFVLTR | 0.236 ± 1.1
70 | SNLMISTCEQMGRCVGDDAV | -0.067 ± 0.36
71 | FKAHIR | inactive
72 | WLLPTTSLLSSQPAQAFRDH | -0.363 ± 0.49
73 | EMSPSLMELFHACVVLVRFG | -0.051 ± 0.37
74 | VAIGLLVEGGFFIHRNICLW | -1.36 ± 0.62
75 | VVDGYYGFWVVSQEDISIYP | -0.094 ± 0.54

Row | Substance | amyloid nucleation score
76 | GVWIFKYCRNNWFGFLIISA | 3.33 ± 0.1
77 | IRCLFVT | inactive
78 | VQISWRFVPWI | 1.79 ± 0.12
79 | ISRILRKYNVIVRSSSVSRG | -1.06 ± 0.31
80 | GRNFYESNCAMFDRYSCFGS | 0.255 ± 1.1
81 | VMTIVIFGLYNY | 2.35 ± 0.18
82 | VRPFECGFTLPVWGG | 0.923 ± 0.81
83 | TATETFAF | -0.28 ± 0.28
84 | GGTDMATFNVPKNEVRDRRG | 1.4 ± 0.25
85 | SSFFLTQSKSFGYA | inactive
86 | SVILILSVGLLTIYLSRNG | 2.76 ± 0.078
87 | EYSYVVGMFREIVDTRTVFV | 0.107 ± 0.2
88 | NSSRL | -0.166 ± 1.1
89 | DNELFPLYWNR | 0.309 ± 0.15
90 | SLLTCLSGMHGWVSIT | -0.13 ± 0.27
91 | YNFGEFACYHH | 3.81 ± 0.099
92 | RNTTKWKMMTLTFNCTRRKK | -0.766 ± 1
93 | IGSLNMLLLGRLVVWMRHIA | 0.312 ± 0.54
94 | HVGLKSLHTMASWFMFDHNI | inactive
95 | AFICMFVIRFDWYNMS | -0.558 ± 1
96 | VSRGNAGWS | 3.6 ± 0.075
97 | LSRNTYWYGVEIGLVLSSCT | 0.161 ± 0.24
98 | FLVLFASVPKEVPLAYRVVK | -0.898 ± 0.61
99 | VCVFMDFHLYMMSARQSTKD | 7.894 ± 0.042
100 | LFLTACER | 6.721 ± 0.043

Row | Substance | amyloid nucleation score
101 | FSIYYRGPRQVSTYRDLIPV | -0.429 ± 0.37
102 | YYVAIVSLWSGVKYVMVKFA | -1.07 ± 0.78
103 | SIARHFRGFV | 0.734 ± 0.47
104 | WINVGCVCLMVMHILPI | 5.4 ± 0.073
105 | DSTPLGYSVLLSWTLVQRNL | 1.38 ± 0.54
106 | AYAKGYCLLSPVLDWRLHFS | 2.52 ± 0.13
107 | LAQLQ | -0.504 ± 0.78
108 | SRMAWYFLLGYHLMMEKVHL | inactive
109 | RDVVSLGLQEGNSRMRHTGG | 0.82 ± 0.23
110 | WGLFPLQCHLVYRLLLSFHK | inactive
111 | MIRLRIVYGTLDMYGLQMYS | 1.46 ± 0.27
112 | VKGISWGLRFS | inactive
113 | PARLCAVVL | 0.066 ± 0.76
114 | IIKECEWNCIVTSDIAYVRW | 5.481 ± 0.052
115 | IGLTLHMRRVVGAKSFKMPL | 0.29 ± 0.77
116 | HEVLTVHNKAFRKYLSCIFR | inactive
117 | FKSCLAGVGLFILMRFHNIA | inactive
118 | KIFTSCKELTVVGLVASYMN | 0.782 ± 0.51
119 | GIHGIIITRV | 3.22 ± 0.14
120 | LNNYSSGFRGMIVFFVVVYV | -1.06 ± 0.61
121 | FGRGSRLLLCAGFPLLNSYA | -0.356 ± 1.1
122 | HWSFS | 2.85 ± 0.17
123 | RIVCSNSWR | -0.113 ± 1.1
124 | LCDGAMRMCGWMKLGVQLGV | 2.82 ± 0.15
125 | VLACTEGNVLFEDDLRTKGL | 1.56 ± 0.35

Row | Substance | amyloid nucleation score
126 | LKVISTCLRWQHASLPCQ | 0.822 ± 0.43
127 | VVAGEYGWTWFFKESLGLGM | -0.332 ± 0.49
128 | SIAWRLEFIVDDGVLFRCKS | -0.563 ± 0.35
129 | NTWTCAQPRVTLLAQLYELN | 3.1 ± 0.12
130 | VVYTRIEVILSGDLSPREMV | 0.763 ± 0.24
131 | VEMLFLSFMRPVLLGTMVAV | 0.007 ± 1.1
132 | YCTSDG | 0.559 ± 0.8
133 | CHCWSELIQIFII | 5.86 ± 0.061
134 | NCDVGYLCLEKFNIPRRSVL | -0.805 ± 0.64
135 | DRHIVLSHSSGNLSRLLLAL | 5.753 ± 0.055
136 | KYMRLSLEDYNC | 0.533 ± 0.39
137 | PKNLILLSHFYSEAVCPGAR | -0.927 ± 1.1
138 | RRETRMGVSSVLDPVAGRWP | 1.58 ± 0.17
139 | VFSYYMSRFLGATCMYKAAG | 5.1 ± 0.072
140 | DSSCFIIRLHSEFMLGSRSF | -0.715 ± 0.79
141 | VDTRRMARKS | 1.28 ± 0.27
142 | YTRNIHMHFHRMLPNVGMAF | inactive
143 | INGQDKHRHWSFTLFYKKRY | -0.145 ± 1.1
144 | ETGSRGAN | 0.263 ± 0.25
145 | NFKWLILAGGVC | -0.808 ± 0.41
146 | TNMIMLFIRMGLRHGDKWAW | 2.54 ± 0.19
147 | IGGLISLGISSIERGYSSLI | inactive
148 | ICQCRSLRGRAYQVLGVNKS | 0.731 ± 0.57
149 | GLSDQKGTVALRFFYFDFYS | 2.73 ± 0.074
150 | NQCAVQGLYRRRMVHDRQED | -0.52 ± 0.78

Row | Substance | amyloid nucleation score
151 | YVGEKRGSVSEYLLHLLSTG | inactive
152 | FSYPGWFGFRS | inactive
153 | SNRLRVVQ | -0.069 ± 0.32
154 | SWNSV | -0.442 ± 0.41
155 | FIGNF | 0.636 ± 0.19
156 | SISGHSWTKCVRVHYALIYG | 1.07 ± 0.38
157 | ECIYIMFKACGLRDRFSQVF | 1.84 ± 0.13
158 | GCYISLHMCLE | 3.84 ± 0.049
159 | STLNSYS | -0.42 ± 0.61
160 | HEHSDVRKKVGWMAFWR | 4.42 ± 0.06
161 | DARKNVDRSPSSLSEKVLSL | 0.642 ± 0.34
162 | IRYWSMLLEVG | 5.683 ± 0.046
163 | WECLGTCDVGSCLTWRIGGR | 2.82 ± 0.18
164 | AVSFWSIF | 0.307 ± 0.64
165 | GWSITGSWFHNMAILLICFR | 3.38 ± 0.075
166 | GVVISCWRLWWDTDMMHR | 0.007 ± 0.24
167 | SHRFADILDCV | 0.518 ± 0.24
168 | CCVGGVPV | 2.57 ± 0.083
169 | EGMLGIHRAGFLDGRGKLGL | inactive
170 | KYVCVI | 0.809 ± 0.48
171 | QSVYLPLRNVIFPVVVSKCE | inactive
172 | GNESDVSTIYKGDIPLLGVL | -1.05 ± 0.55
173 | KIFNSSSFFQL | 0.098 ± 0.65
